Measurements taken from the DeepSol protein solubility set.

Test: soluble on expression in E. coli; label from the status in PepcDB or PDB records

| Sequence | soluble on expression in E. coli |
| --- | --- |
| QSRERLVKWLQDAYAMEKEAETMMAAMASRIEHYPELKRRIEQHVEETQQQSAGVQRCLELLNGSIPTAKGMLSSVLASMHAAGNSMMTDEVTKGVGISYAFEHLEIASYRALVVAARSAGEQEVAQICEDILQQEIEMAEWLIEHQEAIVVAFLE | not soluble |
| MGSDKIHHHHHHMTPSDTNAPVDRLKIGFVLARSFTLSAFALFVDTLRLASDEFDRSGRVLADWDVLGSTRHLITSSCGVQVAPTSDLVEDPSQFQFIVVVGGLLNNEQPIDRETAAFLKKAAAKNVKLIGVCTGSFILAELGLMKSHRTCVSWLHYNAFRERFPDLQVRSDRIFNLDRTRGSCVGGSSAADMAALIVRRHISKDAERNALEVLHIEKARSALAIQTRKPLSIECNDPRIRATLIMMEQHIEGNLPIQDLAAAVGLSRRQLERLFISETKSSPAMIYRRVRLERAKHLLVQSKAPLVEIALEVGFGNASHFAKVFAQTFGQSPTGLRTAIRATL | not soluble |
| MDEFPPIFIISLKDSPRKNIIAERLNALGLSFNFFDAIYGKELSKKQLSEINYDFYIQKFNARKRLTLGEIGCAISHIKLYEYIVKNNINEAIILEDDAIVSIYFKDIICDALKKISCKYEILFLDHGKAKIFPFTRSLVERYRLAKYISPSKKSKRIIIRTTAYIITLNGARKLLNYAYPIRMPSDYLTGTLQLTGINAYGIEPPCVFGGPISEIDQIEDRYCLEHHHHHH | not soluble |
| ALKPTIYKFRIALSDMNNDYYDSKNLTIALHPSEKPQRMLARILAFCLNAQKDLEFTKGLSTTEEPDLWHVADDQSITHWIEIGEPEPDRIKKASRLAKQVKVYTYNTKAPVWWEKMSGKFSMLPVSVESFDYDAIDMICQHLDRGTNLSVMITGTSIFVDVNDQHVEVTVKELQS | soluble |
| SMLSTEGREGFVVKVRGLPWSCSAEEVMRFFSDCKIQNGTSGVRFIYTREGRPSGEAFVELESEDEVKLALKKDRETMGHRYVEVFKSNSVEMDWVLKHTGPNSPDTANDGFVRLRGLPFGCSKEEIVQFFSGLEIVPNGMTLPVDFQGRSTGEAFVQFASQEIAEKALKKHKERIGHRYIEIFKSSRAEVRTHYDPPRKLMTMQRPGPYDRPGAGRGYNSIGRGAGFERMRRGAYGGGYGGYDDYGGYNDGYGFGSDRFGRDLNYCFSGMSDHRYGDGGSSFQSTTGHCVHMRGLPYRATENDIYNFFSPLNPMRVHIEIGPDGRVTGEADVEFATHEDAVAAMAKDKANMQHRYVELFLNSTAGTSGGAYDHSYVELFLNSTAGASGGAYGSQMMGGMGLSNQSSYGGPASQQLSGGYGGGYGGQSSMSGYDQVLQENSSDYQSNLA | not soluble |
| MGSDKIHHHHHHMFTTQIHLKVLAMMLLCGLLNACSQTPQQCSSAIITTWSSAHSQITQDITTLSSTEFQGRKTDSEGARLTQAYLITRFTEMGLQPWQPNFAVPFSFQHQFSTVSGVNIIATIAAKTRSNRWRVITAHYDHLGQTANKMYPGADDNASGIAGMMAIAAQWQENPPLDDVNLMIVATDAEEPGLYGSYALVTLLQQYPLMDIELSVNLDMIGHPDRRRAIYMEGQKNLSNFESIKPLLMQQTQLCIRTHHTNLLSGRMKKSDWLRASDHYPFHKAGYSWVYFGVPPHAQYHTADDTIATLDIDFIVAVAETVYQMLSIDKLTKAP | not soluble |
| MGSDKIHHHHHHMSAPPLCVTVCGGGRTGHLNAILFAQRPGVRVKLLTRNHHIAARQDAVLTGLLPDGATLTASAGMVTDDPAVALRDADIVIITVPAHARPSLLREIVAHLPEGKAVYVGAIPGFCGFDWLAGALLAQRPNAVIWGMKDVPHTAFALDPGVSVRMGGVKQRLYVGCHAREQRAARQALLSHLNRLYDASVELLDSYLEITLTPGNPIMHSAVIYGLIGPYGQWHGRALPTPLCWWTDCPELSAYFLERADEESQRLCQAVARRLGVDLSSVKPLRQEIVDAYGDQIQDPSTMLSVLRTNRAYADIEAPLVPTSGGYLVDTSSRAFHEDVAYGLATLVEMARRLGVDTPHLREIFEWNVTYMGGLRGSALDYFPEFWPR | not soluble |
| MNLSNHFLVAMPDMEDAFFSQSVVYICKHDEDGALGIAINKPSPITMDMIFSATGKNIPFRMQHDSVMMGGPVQVERGYVVHTPIGNWQSSIGVSDNIALTSSRDVIENISREGAVDKILISIGYSSWGKGQLERELADNAWLTVPADEHILFDIPYEHRYAAAFAKLGIDPLALFSGAGHALEHHHHHH | soluble |
| MGSDKIHHHHHHMRVGVIGVGCSRFGRRDDAVIQELAYEAVKEALDDAGITQDEVELSVVGSVNTRGYELMPAVPVNEYCGFAGKGPLRVEAACATGAAAVYTAYTSIASGMADVAIAIGVEKMTEVDTATSLAIGGRAGNYLWEFHQYGTTFPAYYAMHATAHMAKYGTTEEQMAKVAVKAHRNAARNPKAHFQKEIAVEDVLNSRYITYPLKLYDCSPISDGSAAAILASEEKIRELGIDDVVWIDSVGYASDTSNMTNRESFVGLKATVLAREMAYRKAGIEEPVKQLDFATVHDCFTIAEIMAYEDLGFCRKGEGGKLVESGETELGGKLPVNTFGGLKAKGHPLAATGVAMVYEIVKQLRGEAGELQVELRNNRALLHNVGGTGHFAFVMIFGR | not soluble |
| MTRPHQPRIDLNHGFLRFIRRNQVDRDEYNRVHEERKSEIRERIGSSDSSQDGEEKAQSNVYVPPHLRRQKKENEEKFSALKASRSQSQSDTGSEEGEGASGGGEASCPIQQKQKAFDENVRRQVRRRIERTHPTVDDICIVLANYSLQEAASKNSENSNEDLFELVLTLKSGEQKTIGVPRNTQAARLAKSLSREHHFSDSQCRNLRIFIEEQLELRFAREKSTATSSDASIPGSPTSSSESSIIEFSA | not soluble |
| MDRVIAAQVYLRICELGSLSAAARALGMSRPMVSRYLEQMESWAGARLIHRSTRRLTLTPAGEKVLLKTRGLTRIADEIAGERQRADPSGTLRVACAHFTAMQLISPLLPDFLARYPLLRLELDINNHPVSLIGERIDVAIRITDNPEAGAIARRLGVCRSLLCAAPGWMRQHGPLTTPDDLQRHNCLLYSHFASQHWQFSDAQGREASVAVNGNLSAGISSLLLEAAVAGCGIAMLPELEARGAIASGTLEVVLPEWTPKALSVYGIYLSRDYQPDGLPLFLDALQRRLGEETGHG | not soluble |
| MGSDKIHHHHHHMTEGMNAGLAMPPAALETSGGANQVGVRAYNERLVMSLVRRHGSLSKAEIARRSGLSAQTVTVIMRVLEREKLLVRGEPVRGRVGQPSVPMRLNPDAVYSFGVKIGRRSANLVLMDFVGTIRHEVRRTYPYPMPGLLLDFIVGGISDIEGRLSVAERARIAGVGIAAPFELWSWAEETGAPSEEMDVWRETDLKADVAARIGYPVFIQNDATSACAAELVFGVGPHYPDFVYFFLGSFVGGGIVLNSSLFSGRTGTAGAVGPLPVQRRDGKTVQLLKIASIFVLENLLRDYGQDSQSLWYSPSDWVDYGEPLEIWIRDTAAALAQAIVAAASIIDFSAAVIDGGFPQWVRQRLVVAIQEAARDLDLQGVLMPEIVEGAVGHQARSVGGASLPLFSRYLLDQNVLFKELL | not soluble |
| SAALAGVFVWDEERIQEEELQRSINEMKRLEEMSNMFQSSGVQHHPPEPKAQTEGNEDSEGKEQRWEMVMDKKHFKLWRRPITGTHLYQYRVFGTYTDVTPRQFFNVQLDTEYRKKWDALVIKLEVIERDVVSGSEVLHWVTHFPYPMYSRDYVYVRRYSVDQENNMMVLVSRAVEHPSVPESPEFVRVRSYESQMVIRPHKSFDENGFDYLLTYSDNPQTVFPRYCVSWMVSSGMPDFLEKLHMATLKAKNMEIKVKDYISAKPLEMSSEAKATSQSSERKNEGSCGPARIEYA | soluble |
| MSDFVPETEENEEESQKIDEIHEIPAQAIIIDQSFSRRFLNNKWYGKYGEDGDLLEHIDEDWEPVGLDEVEFLSQLWFEQEDQEKKAHRHYDWDEEKKEWVPKAKQEEVNEDFIAEYQANYGVQYDDIYKKMDEELQEKAAKAQKEDEEKKEKKRKKKVGLGAGEDAKEGWLDLGDKVHAVYVSNLPEDITDEEFQKFMSKCGVIQPDIRTNKPKCKLYREENGKLKGDGRCCYIKKESVELACNILDGANLNGREVKVEEARFEMKGDFDPARKRRKLTAAQKKRYMEQQNKIFEWTPDKPRNYRPKSDCTVIVKNLFTQEMMNKNAALMLDLKEEMTQSCQKYGIVKKVVVYANHPDGVVSVTFPTTEESDMAVKYLHGRVVDGRKLTAELWDGRTKFKVEETEEDEEKRRKEYEKYIEGGSSETKEESDDDDDDEAEDN | not soluble |
